Measurements reported in patent publication US20230055408A1 (JIANGSU HENGRUI MEDICINE, published 2023).
Where two headings read alike, the source gives them in different places.

B1: Hu63-13-2-A (DAR 6.29) (antibody, human IgG1, kappa, V domains shown)
VH: EVQLVQSGAEVKKPGASVKVSCKASGYTFTDFYMNWVRQAPGQGLEWMGDIFPKSGNTDYNRKFKDRVTMTRDTSTSTVYMELSSLRSEDTAVYYCARSGYGNYVFDYWGQGTLVTVSS
VL: DIQMTQSPSSLSASVGDRVTITCRTSQDINIYLNWYQQKPGKAPKLLIYYRSGLLSGVPSRFSGSGSGTDFTLTISSLQPEDFATYYCQQGNTLPPTFGGGTKVEIKR
modifications: see heavy chain; linker-toxin 2-A coupled to cysteine thiols of the TCEP-reduced antibody; mean DAR 6.29 per antibody
B2: Hu63-13 (antibody, human IgG1, kappa, V domains shown)
VH: EVQLVQSGAEVKKPGASVKVSCKASGYTFTDFYMNWVRQAPGQGLEWMGDIFPKSGNTDYNRKFKDRVTMTRDTSTSTVYMELSSLRSEDTAVYYCARSGYGNYVFDYWGQGTLVTVSS
VL: DIQMTQSPSSLSASVGDRVTITCRTSQDINIYLNWYQQKPGKAPKLLIYYRSGLLSGVPSRFSGSGSGTDFTLTISSLQPEDFATYYCQQGNTLPPTFGGGTKVEIKR
notes: Humanized IgG1/kappa; h63VH5 + h63VL1
B3: mAb63 (antibody, V domains shown)
VH: EVQLQQSGPELVKPGASVKMSCKASGYTFTDFYMNWVRQSHGKSLEWIGDIFPKNGNTDYNRKFKDKATLTVDKSSNTVYMEFRSLTLEDSAIYFCARSGYGNYVFDYWGQGTIFTVSS
VL: DVQMTQTPSALSASLGDRVTISCRTSQDINIYLNWYQQKPDGTVKLLIYYRSGLLSGVPSRFSGSGSGTDYSLTISNLEPEDIATYFCQQGNTLPPTFGGGTKLEIK
notes: Murine hybridoma antibody
B4: Hu103-32 (antibody, human IgG1, lambda, V domains shown)
VH: EVQLVQSGSELKKPGASVKVSCKASGYTFTTYGVIWVRQAPGQGLEWMGWINTYSGVPTYASDFKGRFVFSLDTSVSTAYLQISSLKAEDTAVYYCARKKTLTTVTPWFAYWGQGTLVTVSS
VL: ELVLTQSPSASASLGASVKLTCTLSSQHSTYTIEWYQQQPEKGPRYVMELKKDGSHSTGEGIPDRFSGSSSGAERYLTISSLQSEDEADYYCGVGNTIKEQFVYVFGGGTKLTVLG
notes: Humanized IgG1/lambda; h103VH4 + h103VL8
B5: Hu67-14 (antibody, human IgG1, kappa, V domains shown)
VH: EVQLVQSGAEVKKPGESLKISCKGSGYSFTDYHMNWVKQMPGKGLEWMGDINPDIGGTSYNQNFKGKVTISVDKSISTAYLQWSSLKASDTAMYYCARWDFDSFANWGQGTLVTVSS
VL: DIQMTQSPSSLSASVGDRVTITCRASESVSIIGTNLIHWYQQKPGKAPKLLIYHASNLETGVPSRFSGSGSGTDFTLTISSLQPEDFATYYCLQSRKIPYTFGGGTKVEIKR
notes: Humanized IgG1/kappa; h67VH3 + h67VL4

Key:
[1] = target: T1, human CEA protein on the cell surface (human, UniProt P06731 35-685); experiment: cell-based or functional assay
T1 sequence (looked up): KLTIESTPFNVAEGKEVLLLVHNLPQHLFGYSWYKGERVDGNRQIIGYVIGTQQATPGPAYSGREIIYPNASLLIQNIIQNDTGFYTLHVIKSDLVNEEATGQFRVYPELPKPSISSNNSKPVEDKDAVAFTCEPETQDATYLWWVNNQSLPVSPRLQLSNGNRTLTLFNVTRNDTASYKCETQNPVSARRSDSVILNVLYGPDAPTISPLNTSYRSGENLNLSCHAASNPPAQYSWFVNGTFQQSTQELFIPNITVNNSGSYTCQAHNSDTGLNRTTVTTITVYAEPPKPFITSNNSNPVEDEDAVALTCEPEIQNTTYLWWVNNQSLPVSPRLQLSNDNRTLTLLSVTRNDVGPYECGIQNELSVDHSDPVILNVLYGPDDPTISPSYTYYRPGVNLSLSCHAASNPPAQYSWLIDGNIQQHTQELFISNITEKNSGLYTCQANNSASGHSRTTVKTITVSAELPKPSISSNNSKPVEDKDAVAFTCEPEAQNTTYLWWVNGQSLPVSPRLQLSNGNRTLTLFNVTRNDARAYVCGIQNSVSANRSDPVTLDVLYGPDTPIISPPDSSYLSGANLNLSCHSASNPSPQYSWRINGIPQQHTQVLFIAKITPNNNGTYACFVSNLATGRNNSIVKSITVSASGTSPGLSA

[2] = target: T2, human CEACAM1 expressed on CHO cell surface (human, UniProt P13688 35-526); experiment: FACS, CEACAM1-CHO cells
T2 construct: also called CEACAM1-CHO
T2 sequence: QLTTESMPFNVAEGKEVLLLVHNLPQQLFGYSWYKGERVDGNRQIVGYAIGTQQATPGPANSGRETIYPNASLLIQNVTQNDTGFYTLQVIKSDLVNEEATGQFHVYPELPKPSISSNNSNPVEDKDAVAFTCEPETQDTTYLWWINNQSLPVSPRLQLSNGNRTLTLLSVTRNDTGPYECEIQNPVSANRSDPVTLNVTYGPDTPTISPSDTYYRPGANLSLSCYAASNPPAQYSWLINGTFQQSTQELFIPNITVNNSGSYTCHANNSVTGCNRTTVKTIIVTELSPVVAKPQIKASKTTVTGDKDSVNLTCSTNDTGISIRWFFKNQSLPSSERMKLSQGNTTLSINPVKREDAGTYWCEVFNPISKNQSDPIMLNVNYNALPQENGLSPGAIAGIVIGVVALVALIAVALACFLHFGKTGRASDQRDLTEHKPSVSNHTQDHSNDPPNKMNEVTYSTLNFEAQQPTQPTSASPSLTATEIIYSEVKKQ

[3] = target: T3, human soluble CEA (human, UniProt P06731 35-685, limits assumed); experiment: SPR (Biacore T200), antibody captured, soluble CEA as analyte, 1:1 Langmuir
T3 construct: also called sCEA
T3 sequence (looked up): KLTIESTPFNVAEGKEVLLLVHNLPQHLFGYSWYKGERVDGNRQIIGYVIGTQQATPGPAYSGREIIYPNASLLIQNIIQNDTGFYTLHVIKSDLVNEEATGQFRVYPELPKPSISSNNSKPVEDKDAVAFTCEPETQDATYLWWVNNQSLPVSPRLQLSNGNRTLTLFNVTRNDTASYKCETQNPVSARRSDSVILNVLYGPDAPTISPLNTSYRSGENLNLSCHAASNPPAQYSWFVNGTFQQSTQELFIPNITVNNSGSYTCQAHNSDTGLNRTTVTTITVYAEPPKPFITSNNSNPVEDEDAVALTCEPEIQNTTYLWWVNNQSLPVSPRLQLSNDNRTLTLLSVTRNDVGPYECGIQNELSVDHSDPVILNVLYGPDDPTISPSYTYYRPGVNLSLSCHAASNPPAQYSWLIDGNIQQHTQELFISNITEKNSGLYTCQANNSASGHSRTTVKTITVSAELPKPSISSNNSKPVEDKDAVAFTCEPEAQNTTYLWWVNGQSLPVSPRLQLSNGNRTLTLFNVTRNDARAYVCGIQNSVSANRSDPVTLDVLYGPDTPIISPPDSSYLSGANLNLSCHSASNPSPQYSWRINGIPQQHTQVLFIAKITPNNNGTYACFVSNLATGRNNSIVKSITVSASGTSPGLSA
Experimental: The affinity of a test humanized antibody for human and monkey soluble CEA was determined using a Biacore (GE, T200) instrument. According to the method in the instructions of a human antibody capture kit (GE, Cat #BR-1008-39), the human antibody capture antibody was covalently conjugated to a biosensor chip CM5 (GE, Cat #BR-1005-30) of the Biacore instrument to affinity-capture a certain amount of the test antibody, then a series of concentration gradients of soluble CEA antigens were allow to flow through the surface of the chip, and reaction signals were detected in real time using Biacore, so that an association and dissociation curve was obtained. After each cycle of dissociation was completed, the biochip was washed and regenerated with a regeneration solution prepared in the human antibody capture kit. The data obtained from the experiment were fitted with the (1:1) Langmuir model using BIAevaluation version 4.1 software to obtain affinity values.

[4] = target: T1, human CEA protein on the cell surface; experiment: FACS, MKN45 cells
[5] = target: T4, monkey CEA expressed on CHO cell surface (cynomolgus monkey); experiment: FACS, cynoCEA-CHO cells
T4 construct: also called cynoCEA-CHO; monkey CEA proteins on the cell surface
T4 chain: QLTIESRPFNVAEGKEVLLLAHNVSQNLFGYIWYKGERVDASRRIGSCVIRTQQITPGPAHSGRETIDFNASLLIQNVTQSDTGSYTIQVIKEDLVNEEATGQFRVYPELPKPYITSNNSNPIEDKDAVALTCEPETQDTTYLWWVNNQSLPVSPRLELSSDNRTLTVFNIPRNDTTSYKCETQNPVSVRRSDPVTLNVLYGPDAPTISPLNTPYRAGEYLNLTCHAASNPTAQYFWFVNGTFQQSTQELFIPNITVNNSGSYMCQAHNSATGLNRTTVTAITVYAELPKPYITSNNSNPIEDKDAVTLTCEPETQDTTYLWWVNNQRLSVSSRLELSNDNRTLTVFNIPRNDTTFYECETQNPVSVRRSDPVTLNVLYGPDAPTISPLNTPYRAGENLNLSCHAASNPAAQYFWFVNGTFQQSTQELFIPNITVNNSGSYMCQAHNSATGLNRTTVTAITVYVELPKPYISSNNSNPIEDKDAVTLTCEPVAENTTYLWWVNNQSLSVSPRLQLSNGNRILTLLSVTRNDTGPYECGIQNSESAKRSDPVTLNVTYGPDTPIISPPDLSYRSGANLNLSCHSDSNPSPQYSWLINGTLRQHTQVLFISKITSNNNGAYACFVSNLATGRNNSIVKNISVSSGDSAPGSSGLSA

[6] = target: T1, human CEA protein on the cell surface; experiment: FACS, MKN45 cells, -/+ 5 ug/mL sCEA as competitor
Experimental: The gradient-diluted antibody and the pre-incubated mixed solution of the antibody and sCEA was added into each well. The plate was incubated at 4° C. for 60 min and centrifuged, and the supernatant was removed. The cells were washed twice with pre-cooled PBS containing FBS at final concentration 10%. 50 μL of 1:200 diluted secondary antibody Alexa Fluor@488 goat anti-human IgG (H+L) (Lifetechologies, Cat #A11013) was added. […] The cells were washed twice with 250 μL of pre-cooled PBS with FBS at final concentration 10%. 100 μL of pre-cooled PBS was added to each well to resuspend the cells. The suspension was analyzed by a flow cytometer (FACS) (BD, FACSverse) for fluorescence signal values.

[7] = target: T1, human CEA protein on the cell surface; experiment: FACS, MKN45 cells; remark: listed apart in the source
[8] = target: T4, monkey CEA expressed on CHO cell surface; experiment: FACS, cynoCEA-CHO cells
[9] = target: T2, human CEACAM1 expressed on CHO cell …; experiment: FACS, CEACAM1-CHO cells; remark: listed apart in the source

Binder	binding result [2]	Kd [3] [nM]	EC50 [4] [nM]	EC50 [5] [nM]	other results
B1	–	–	–	–	IC50 of inhibition of cell proliferation, LS174T (with moderate CEA expression) [1]: 13.1 nM; IC50 of inhibition of cell proliferation, MKN45 (with high CEA expression) [1]: 3.93 nM
B2	no binding	144	2.93	1.71	–
B3	–	–	–	–	maximum ratio of fluorescence signals (absence of sCEA / presence of sCEA) [6]: 1.43; EC50 [7]: 3.62 nM; EC50 [8]: 2.88 nM; binding result [9]: no binding
B4	no binding	31.1	1.79	–	–
B5	no binding	228	–	2.89	–
